Substitutions are numbered along the chain they refer to. Several values for one entry are separate records, joined by “and”; a condition that tells them apart may be missing. Equal values may be shown once.

B1: Trastuzumab HCDR3 variant ARYYYGYGGYYFDY (Fab, V domains shown)
VH: EVQLVESGGGLVQPGGSLRLSCAASGFNIKDTYIHWVRQAPGKGLEWVARIYPTNGYTRYADSVKGRFTISADTSKNTAYLQMNSLRAEDTAVYYCARYYYGYGGYYFDYWGQGTLVTVSS
VL: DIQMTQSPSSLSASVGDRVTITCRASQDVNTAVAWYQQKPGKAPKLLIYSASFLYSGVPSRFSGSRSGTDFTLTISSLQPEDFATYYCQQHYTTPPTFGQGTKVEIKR
B2: Trastuzumab HCDR3 variant ARYGYAPGFYYMDV (Fab, V domains shown)
VH: B1 VH with Y100G, G102A, Y103P, G105F, F108M, Y110V
VL: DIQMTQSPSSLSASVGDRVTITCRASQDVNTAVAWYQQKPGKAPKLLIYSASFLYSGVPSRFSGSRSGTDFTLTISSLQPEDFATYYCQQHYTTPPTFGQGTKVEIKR
B3: Trastuzumab HCDR3 variant TRYYDGAGPYYMDY (Fab, V domains shown)
VH: B1 VH with A97T, Y101D, Y103A, G105P, F108M
VL: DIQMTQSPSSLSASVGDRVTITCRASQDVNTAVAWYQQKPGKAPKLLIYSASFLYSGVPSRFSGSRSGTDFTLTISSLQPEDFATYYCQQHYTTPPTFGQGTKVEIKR
B4: Trastuzumab HCDR3 variant ARYGGGYNMDY (Fab, V domains shown)
VH: EVQLVESGGGLVQPGGSLRLSCAASGFNIKDTYIHWVRQAPGKGLEWVARIYPTNGYTRYADSVKGRFTISADTSKNTAYLQMNSLRAEDTAVYYCARYGGGYNMDYWGQGTLVTVSS
VL: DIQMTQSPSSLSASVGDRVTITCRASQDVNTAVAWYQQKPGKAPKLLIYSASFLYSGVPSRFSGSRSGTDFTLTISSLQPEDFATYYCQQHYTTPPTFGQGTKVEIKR
B5: Trastuzumab HCDR3 variant TRWGGYYYFDY (Fab, V domains shown)
VH: B4 VH with A97T, Y99W, G102Y, N104Y, M105F
VL: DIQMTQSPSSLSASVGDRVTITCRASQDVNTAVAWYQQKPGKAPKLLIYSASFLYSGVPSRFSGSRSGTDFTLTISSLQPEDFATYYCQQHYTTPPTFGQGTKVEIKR
B6: Trastuzumab HCDR3 variant APYGPGYWYGV (Fab, V domains shown)
VH: B4 VH with R98P, G101P, N104W, M105Y, D106G, Y107V
VL: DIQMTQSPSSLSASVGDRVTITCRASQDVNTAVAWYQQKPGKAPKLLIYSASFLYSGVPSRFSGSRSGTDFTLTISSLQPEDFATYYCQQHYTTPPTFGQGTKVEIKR
B7: Trastuzumab HCDR3 variant ARWYVSYDYDV (Fab, V domains shown)
VH: B4 VH with Y99W, G100Y, G101V, G102S, N104D, M105Y, Y107V
VL: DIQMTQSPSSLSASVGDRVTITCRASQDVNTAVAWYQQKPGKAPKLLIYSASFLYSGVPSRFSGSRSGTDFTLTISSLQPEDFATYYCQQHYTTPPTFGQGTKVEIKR
B8: Trastuzumab HCDR3 variant VRYGNSYYYDY (Fab, V domains shown)
VH: B4 VH with A97V, G101N, G102S, N104Y, M105Y
VL: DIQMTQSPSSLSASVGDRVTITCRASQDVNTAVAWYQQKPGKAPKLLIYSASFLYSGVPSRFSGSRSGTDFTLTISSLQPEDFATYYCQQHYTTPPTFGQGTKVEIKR
B9: Trastuzumab HCDR3 variant TRYGLTFDMDY (Fab, V domains shown)
VH: B4 VH with A97T, G101L, G102T, Y103F, N104D
VL: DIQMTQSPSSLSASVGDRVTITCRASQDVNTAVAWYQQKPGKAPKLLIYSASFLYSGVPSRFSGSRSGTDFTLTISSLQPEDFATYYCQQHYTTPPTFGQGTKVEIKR
B10: Trastuzumab HCDR3 variant VRFYYDYYFDY (Fab, V domains shown)
VH: B4 VH with A97V, Y99F, G100Y, G101Y, G102D, N104Y, M105F
VL: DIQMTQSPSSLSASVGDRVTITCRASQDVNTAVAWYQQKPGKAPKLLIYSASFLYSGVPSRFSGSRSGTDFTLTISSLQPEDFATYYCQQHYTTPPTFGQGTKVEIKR
B11: Trastuzumab HCDR3 variant ARWEDYYYMDY (Fab, V domains shown)
VH: B4 VH with Y99W, G100E, G101D, G102Y, N104Y
VL: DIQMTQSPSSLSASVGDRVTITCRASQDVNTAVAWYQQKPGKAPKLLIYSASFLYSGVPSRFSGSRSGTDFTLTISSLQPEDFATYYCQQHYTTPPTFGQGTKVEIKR
B12: Trastuzumab HCDR3 variant TRYGYGGPYWFDY (Fab, V domains shown)
VH: EVQLVESGGGLVQPGGSLRLSCAASGFNIKDTYIHWVRQAPGKGLEWVARIYPTNGYTRYADSVKGRFTISADTSKNTAYLQMNSLRAEDTAVYYCTRYGYGGPYWFDYWGQGTLVTVSS
VL: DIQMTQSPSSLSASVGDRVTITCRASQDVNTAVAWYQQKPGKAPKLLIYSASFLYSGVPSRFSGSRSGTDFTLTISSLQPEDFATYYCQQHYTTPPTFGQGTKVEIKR
B13: Trastuzumab HCDR3 variant VRYGFDGSYYFDP (Fab, V domains shown)
VH: B12 VH with T97V, Y101F, G102D, P104S, W106Y, Y109P
VL: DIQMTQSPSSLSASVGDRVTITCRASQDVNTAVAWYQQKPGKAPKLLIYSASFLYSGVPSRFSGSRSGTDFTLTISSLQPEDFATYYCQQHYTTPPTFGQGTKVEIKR
B14: Trastuzumab HCDR3 variant VRYGSDVYYYFDI (Fab, V domains shown)
VH: B12 VH with T97V, Y101S, G102D, G103V, P104Y, W106Y, Y109I
VL: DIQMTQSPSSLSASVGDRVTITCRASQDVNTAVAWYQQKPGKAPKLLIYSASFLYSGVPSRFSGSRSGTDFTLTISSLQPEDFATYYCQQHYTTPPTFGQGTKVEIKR
B15: Trastuzumab HCDR3 variant VRYFYDGNYYFDL (Fab, V domains shown)
VH: B12 VH with T97V, G100F, G102D, P104N, W106Y, Y109L
VL: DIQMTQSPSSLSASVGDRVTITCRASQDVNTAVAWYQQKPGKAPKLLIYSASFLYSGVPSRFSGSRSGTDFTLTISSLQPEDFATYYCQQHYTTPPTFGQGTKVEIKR
B16: Trastuzumab HCDR3 variant TRYYYYGSYHFDY (Fab, V domains shown)
VH: B12 VH with G100Y, G102Y, P104S, W106H
VL: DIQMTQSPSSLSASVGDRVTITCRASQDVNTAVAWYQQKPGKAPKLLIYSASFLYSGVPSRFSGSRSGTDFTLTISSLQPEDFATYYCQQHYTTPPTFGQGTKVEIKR
B17: Trastuzumab HCDR3 variant TRYLHDYYYYFDY (Fab, V domains shown)
VH: B12 VH with G100L, Y101H, G102D, G103Y, P104Y, W106Y
VL: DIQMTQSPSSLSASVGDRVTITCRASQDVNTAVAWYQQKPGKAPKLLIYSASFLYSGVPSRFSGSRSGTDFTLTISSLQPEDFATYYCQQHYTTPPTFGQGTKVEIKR
B18: Trastuzumab HCDR3 variant VRYYGDGGYYFDY (Fab, V domains shown)
VH: B12 VH with T97V, G100Y, Y101G, G102D, P104G, W106Y
VL: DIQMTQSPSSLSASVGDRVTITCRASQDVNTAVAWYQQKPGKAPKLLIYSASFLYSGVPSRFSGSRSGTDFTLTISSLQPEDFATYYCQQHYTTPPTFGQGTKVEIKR
B19: Trastuzumab HCDR3 variant VRYGGWGFWYFDY (Fab, V domains shown)
VH: B12 VH with T97V, Y101G, G102W, P104F, Y105W, W106Y
VL: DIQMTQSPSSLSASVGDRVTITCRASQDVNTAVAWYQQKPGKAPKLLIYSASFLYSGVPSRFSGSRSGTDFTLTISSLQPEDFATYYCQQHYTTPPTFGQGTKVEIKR
B20: Trastuzumab HCDR3 variant VRWGVGAYYNFDY (Fab, V domains shown)
VH: B12 VH with T97V, Y99W, Y101V, G103A, P104Y, W106N
VL: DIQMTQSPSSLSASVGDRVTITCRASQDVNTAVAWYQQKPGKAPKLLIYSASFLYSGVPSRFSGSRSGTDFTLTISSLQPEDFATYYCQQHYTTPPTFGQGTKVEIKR
B21: Trastuzumab HCDR3 variant TRYRGPYYYYFDP (Fab, V domains shown)
VH: B12 VH with G100R, Y101G, G102P, G103Y, P104Y, W106Y, Y109P
VL: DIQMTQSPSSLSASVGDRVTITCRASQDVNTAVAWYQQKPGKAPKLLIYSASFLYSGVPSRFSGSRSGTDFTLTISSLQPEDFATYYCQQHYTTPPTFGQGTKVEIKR
B22: Trastuzumab HCDR3 variant TSIFSGGYYGLDS (Fab, V domains shown)
VH: B12 VH with R98S, Y99I, G100F, Y101S, P104Y, W106G, F107L, Y109S
VL: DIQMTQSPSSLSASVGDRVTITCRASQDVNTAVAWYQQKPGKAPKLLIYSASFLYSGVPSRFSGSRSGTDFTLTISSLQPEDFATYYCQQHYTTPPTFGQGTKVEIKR
B23: Trastuzumab HCDR3 variant VRYGYGDYYYFDY (Fab, V domains shown)
VH: B12 VH with T97V, G103D, P104Y, W106Y
VL: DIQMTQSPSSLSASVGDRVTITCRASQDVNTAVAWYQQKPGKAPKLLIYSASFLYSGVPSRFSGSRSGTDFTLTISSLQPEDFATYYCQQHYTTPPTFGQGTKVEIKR
B24: Trastuzumab HCDR3 variant VRYGFYGYYYFDY (Fab, V domains shown)
VH: B12 VH with T97V, Y101F, G102Y, P104Y, W106Y
VL: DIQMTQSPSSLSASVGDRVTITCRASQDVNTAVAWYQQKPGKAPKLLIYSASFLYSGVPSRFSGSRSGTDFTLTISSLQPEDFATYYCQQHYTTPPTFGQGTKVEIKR
B25: Trastuzumab HCDR3 variant ARYYGYYYAFDY (Fab, V domains shown)
VH: EVQLVESGGGLVQPGGSLRLSCAASGFNIKDTYIHWVRQAPGKGLEWVARIYPTNGYTRYADSVKGRFTISADTSKNTAYLQMNSLRAEDTAVYYCARYYGYYYAFDYWGQGTLVTVSS
VL: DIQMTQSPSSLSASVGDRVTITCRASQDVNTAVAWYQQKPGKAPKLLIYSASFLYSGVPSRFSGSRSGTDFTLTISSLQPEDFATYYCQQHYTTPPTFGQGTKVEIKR
B26: Trastuzumab HCDR3 variant AANAAIFAAWGA (Fab, V domains shown)
VH: B25 VH with R98A, Y99N, Y100A, G101A, Y102I, Y103F, Y104A, F106W, D107G, Y108A
VL: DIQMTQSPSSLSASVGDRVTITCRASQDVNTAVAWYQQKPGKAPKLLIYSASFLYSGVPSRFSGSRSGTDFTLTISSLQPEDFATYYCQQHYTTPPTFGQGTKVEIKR
B27: Trastuzumab HCDR3 variant AAYWYGVYVFRY (Fab, V domains shown)
VH: B25 VH with R98A, Y100W, G101Y, Y102G, Y103V, A105V, D107R
VL: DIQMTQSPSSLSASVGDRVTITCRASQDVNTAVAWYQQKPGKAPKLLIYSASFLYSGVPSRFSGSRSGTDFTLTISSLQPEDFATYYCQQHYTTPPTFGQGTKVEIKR
B28: Trastuzumab HCDR3 variant AGYWYGSYSFDY (Fab, V domains shown)
VH: B25 VH with R98G, Y100W, G101Y, Y102G, Y103S, A105S
VL: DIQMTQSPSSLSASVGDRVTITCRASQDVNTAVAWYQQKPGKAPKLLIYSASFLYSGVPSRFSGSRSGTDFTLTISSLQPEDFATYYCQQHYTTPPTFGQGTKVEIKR
B29: Trastuzumab HCDR3 variant AAYGPQGYAFAV (Fab, V domains shown)
VH: B25 VH with R98A, Y100G, G101P, Y102Q, Y103G, D107A, Y108V
VL: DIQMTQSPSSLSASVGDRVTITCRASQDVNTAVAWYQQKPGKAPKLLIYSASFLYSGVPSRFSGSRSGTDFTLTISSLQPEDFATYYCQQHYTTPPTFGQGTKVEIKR
B30: Trastuzumab HCDR3 variant AASADFMYGVIR (Fab, V domains shown)
VH: B25 VH with R98A, Y99S, Y100A, G101D, Y102F, Y103M, A105G, F106V, D107I, Y108R
VL: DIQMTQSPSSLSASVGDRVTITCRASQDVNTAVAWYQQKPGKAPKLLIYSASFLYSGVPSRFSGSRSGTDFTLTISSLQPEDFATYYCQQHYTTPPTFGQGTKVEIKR
B31: Trastuzumab HCDR3 variant AKYGISDYGFDH (Fab, V domains shown)
VH: B25 VH with R98K, Y100G, G101I, Y102S, Y103D, A105G, Y108H
VL: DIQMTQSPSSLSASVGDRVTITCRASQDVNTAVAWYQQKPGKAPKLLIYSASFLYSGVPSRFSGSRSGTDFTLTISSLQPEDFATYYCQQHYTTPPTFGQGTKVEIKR
B32: Trastuzumab HCDR3 variant AKYAFGGWSYSP (Fab, V domains shown)
VH: B25 VH with R98K, Y100A, G101F, Y102G, Y103G, Y104W, A105S, F106Y, D107S, Y108P
VL: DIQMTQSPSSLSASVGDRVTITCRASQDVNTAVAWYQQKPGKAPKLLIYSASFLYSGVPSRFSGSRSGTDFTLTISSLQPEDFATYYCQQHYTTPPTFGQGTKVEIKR

One test deals with T1, HER2 (human epidermal growth factor receptor 2) (human, UniProt P04626 23-629).
T1 construct: also called Antigen: HER2
Kind of test: SPR.
In the case of B1, the Kd stood at 15 nM and the “log(KD (M))” value is -7.82.

As for B2, the Kd stood at 9.72 nM and the “log(KD (M))” value was -8.01.

Regarding B3, the Kd was 23.7 nM and 23.6 nM; the “log(KD (M))” value was -7.63.

For B4, the Kd was found to be 14.3 nM and the “log(KD (M))” value is -7.84.

B5: the Kd turned out to be 9.79 nM and the “log(KD (M))” value was -8.01.

Turning to B6, the Kd is 9.15 nM and the “log(KD (M))” value is -8.04.

In the case of B7, the Kd turned out to be 17.6 nM and the “log(KD (M))” value was -7.75.

Take B8: the equilibrium dissociation constant (Kd) is 26.9 nM and the “log(KD (M))” value was -7.57.

Consider B9, for which the Kd amounted to 13.9 nM and the “log(KD (M))” value was -7.86.

As to B10, the Kd turned out to be 26.9 nM and the “log(KD (M))” value was -7.57.

Regarding B11, the equilibrium dissociation constant (Kd) worked out at 21.8 nM and the “log(KD (M))” value was -7.66.

As to B12, the affinity, expressed as Kd, was 14.3 nM and the “log(KD (M))” value is -7.84.

In the case of B13, the Kd was found to be 13.2 nM and the “log(KD (M))” value was -7.88.

As to B14, the Kd turned out to be 19.9 nM and the “log(KD (M))” value was -7.7.

For B15, the Kd came out at 22.9 nM and the “log(KD (M))” value is -7.64.

As to B16, the Kd was found to be 6.82 nM and the “log(KD (M))” value is -8.17.

B17: the Kd is 22.7 nM and the “log(KD (M))” value is -7.64.

With B18, binding was characterised by a dissociation constant (Kd) of 5.35 nM and the “log(KD (M))” value was -8.27.

Turning to B19, the Kd stood at 6.76 nM and the “log(KD (M))” value was -8.17.

Regarding B20, the Kd turned out to be 12.1 nM and the “log(KD (M))” value is -7.92.

In the case of B21, the Kd is 12.1 nM and the “log(KD (M))” value is -7.92.

As for B22, binding was put at a Kd of 8.57 nM and the “log(KD (M))” value was -8.07.

Regarding B23, the dissociation constant Kd is 25.1 nM and the “log(KD (M))” value is -7.6.

In the case of B24, the Kd is 16.5 nM and the “log(KD (M))” value was -7.78.

Another test addresses human epidermal growth factor receptor 2 (HER2) extracellular domain (human, UniProt P04626 23-629). Kind of test: SPR.
As for B25, the equilibrium dissociation constant (Kd) came out at 46.3 nM and the “log(KD (M))” value is -7.33 log(M).

Consider B26, for which the Kd worked out at 43.1 nM and the “log(KD (M))” value is -7.37 log(M).

With B27, the dissociation constant Kd came out at 113 nM and the “log(KD (M))” value was -6.95 log(M).

On to B28, for which the Kd is 35.4 nM and the “log(KD (M))” value was -7.45 log(M).

For B29, binding was characterised by a dissociation constant (Kd) of 33.8 nM and the “log(KD (M))” value is -7.47 log(M).

In the case of B30, the Kd amounted to 39.6 nM and the “log(KD (M))” value was -7.4 log(M).

Turning to B31, the Kd is 207 nM and the “log(KD (M))” value is -6.68 log(M).

In the case of B32, binding was put at a Kd of 37.7 nM and the “log(KD (M))” value is -7.42 log(M).

The values above are taken from patent publication US20250218531A1 (ABSCI, published 2025).
